Patent US20150037868

Tests used:
[1] = system: Pgi with HRV 3C recognition sequence inserted after amino acid 108
[2] = system: Pgi with HRV 3C recognition sequence inserted after amino acid 109
[3] = system: Pgi with HRV 3C recognition sequence inserted after amino acid 110
[4] = system: Pgi with HRV 3C recognition sequence inserted after amino acid 138
[5] = system: Pgi with HRV 3C recognition sequence inserted after amino acid 410
[6] = system: Pgi with HRV 3C recognition sequence inserted after amino acid 527
[7] = system: Pgi with HRV 3C recognition sequence inserted after amino acid 528
[8] = system: Pgi with HRV 3C recognition sequence inserted after amino acid 529
[9] = system: Pgi with HRV 3C recognition sequence inserted after amino acid 530
[10] = system: Pgi with HRV 3C recognition sequence inserted after amino acid 531
[11] = system: Pgi with HRV 3C recognition sequence inserted after amino acid 532
[12] = system: Pgi-HRV-I526 (Pgi with HRV 3C recognition sequence inserted after amino acid 526)
[13] = system: Pta variant with HRV protease cleavage motif inserted after amino acid 381
[14] = system: Pta variant with HRV protease cleavage motif inserted after amino acid 382
[15] = system: Pta variant with HRV protease cleavage motif inserted after amino acid 387
[16] = system: Pta variant with HRV protease cleavage motif inserted after amino acid 409
[17] = system: wild-type Pgi protein (phosphoglucose isomerase of Escherichia coli)

Substance: exogenous HRV 3C protease (ACCELAGEN H0101S)
- Pgi Activity/Activity wild type, +protease; -protease value 0.94 [1]: 0.86
- Pgi activity in clarified lysate, +protease (10 units exogenous HRV 3C protease, 4 h, 37 C); -protease value 2.16 (µmol/min/mg total protein) [1]: 2.03
- Pgi Activity/Activity wild type, +protease; -protease value 1.10 [2]: 0.78
- Pgi activity in clarified lysate, +protease (10 units exogenous HRV 3C protease, 4 h, 37 C); -protease value 2.54 (µmol/min/mg total protein) [2]: 1.86
- Pgi Activity/Activity wild type, +protease; -protease value 0.92 [3]: 0.84
- Pgi activity in clarified lysate, +protease (10 units exogenous HRV 3C protease, 4 h, 37 C); -protease value 2.13 (µmol/min/mg total protein) [3]: 1.99
- Pgi Activity/Activity wild type, +protease; -protease value 0.27 [4]: 0.16
- Pgi activity in clarified lysate, +protease (10 units exogenous HRV 3C protease, 4 h, 37 C); -protease value 0.62 (µmol/min/mg total protein) [4]: 0.37
- Pgi Activity/Activity wild type, +protease; -protease value 0.50 [5]: 0.41
- Pgi activity in clarified lysate, +protease (10 units exogenous HRV 3C protease, 4 h, 37 C); -protease value 1.16 (µmol/min/mg total protein) [5]: 0.96
- Pgi Activity/Activity wild type, +protease; -protease value 0.84 [6]: 0.6
- Pgi activity in clarified lysate, +protease (10 units exogenous HRV 3C protease, 4 h, 37 C); -protease value 1.93 (µmol/min/mg total protein) [6]: 1.42
- Pgi Activity/Activity wild type, +protease; -protease value 0.45 [7]: 0.26
- Pgi activity in clarified lysate, +protease (10 units exogenous HRV 3C protease, 4 h, 37 C); -protease value 1.04 (µmol/min/mg total protein) [7]: 0.63
- Pgi Activity/Activity wild type, +protease; -protease value 0.64 [8]: 0.5
- Pgi activity in clarified lysate, +protease (10 units exogenous HRV 3C protease, 4 h, 37 C); -protease value 1.48 (µmol/min/mg total protein) [8]: 1.19
- Pgi Activity/Activity wild type, +protease; -protease value 0.33 [9]: 0.12
- Pgi activity in clarified lysate, +protease (10 units exogenous HRV 3C protease, 4 h, 37 C); -protease value 0.77 (µmol/min/mg total protein) [9]: 0.29
- Pgi Activity/Activity wild type, +protease; -protease value 0.56 [10]: 0.28
- Pgi activity in clarified lysate, +protease (10 units exogenous HRV 3C protease, 4 h, 37 C); -protease value 1.29 (µmol/min/mg total protein) [10]: 0.67
- Pgi Activity/Activity wild type, +protease; -protease value 0.50 [11]: 0.22
- Pgi activity in clarified lysate, +protease (10 units exogenous HRV 3C protease, 4 h, 37 C); -protease value 1.15 (µmol/min/mg total protein) [11]: 0.52
- Pgi Activity/Activity wild type, +protease; -protease value 0.83 [12]: 0.19
- Pgi activity in clarified lysate, +protease (10 units exogenous HRV 3C protease, 4 h, 37 C); -protease value 1.92 (µmol/min/mg total protein) [12]: 0.44
- in vitro Pta activity with or without exogenously supplied HRV protease, 30 minutes at 37 C [13]: In all cases, Pta activity was dramatically reduced upon incubation with HRV protease.
- in vitro Pta activity with or without exogenously supplied HRV protease, 30 minutes at 37 C [14]: In all cases, Pta activity was dramatically reduced upon incubation with HRV protease.
- in vitro Pta activity with or without exogenously supplied HRV protease, 30 minutes at 37 C [15]: In all cases, Pta activity was dramatically reduced upon incubation with HRV protease.
- in vitro Pta activity with or without exogenously supplied HRV protease, 30 minutes at 37 C [16]: In all cases, Pta activity was dramatically reduced upon incubation with HRV protease.
- Pgi Activity/Activity wild type, +protease; -protease value 1 [17]: 1
- Pgi activity in clarified lysate, +protease (10 units exogenous HRV 3C protease, 4 h, 37 C); -protease value 2.31 (µmol/min/mg total protein) [17]: 2.37
